Source: the supplement of paper PMC9170038

Test system: MS2 coat protein
Experiment: apparent KD of MS2 coat protein; designed switch direction (-1 OFF switch, 1 ON switch): -1; higher = weaker reporter binding
How it was run: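 Apparent KD, taken as the median over clusters for each design, was obtained by curve-fitting normalised cluster fluorescence. Designed RNA switches had been transcribed on Illumina chips by stalled E. coli RNA polymerase and titrated with SNAP-549-labelled MS2 coat protein, doubling from 0.7 or 1.5 nM to 3 µM.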

[1] = Eterna round: R95, input ligand: microRNA oligo, concentration not stated
[2] = input ligand: microRNA oligo, concentration not stated

Sequence	apparent KD of MS2 coat protein [1] [nM]	apparent KD of MS2 coat protein (input ligand: FMN 200 uM) [nM]	apparent KD of MS2 coat protein [2] [nM]	apparent KD of MS2 coat protein (input ligand: none) [nM]	apparent KD of MS2 coat protein (Eterna round: R95, input ligand: FMN 200 uM) [nM]	apparent KD of MS2 coat protein (Eterna round: R95, input ligand: none) [nM]
UCGGCGCGAGGAUAUACGUUUGCUUUUUAGGAUCGUGGCGUACAUGAGGAUCACCCAUGUAGAAGGCGCGCCGC [Apr-15 SS2-28] (puzzle: Exclusion 2)	12.4	–	–	–	–	–
UCGGCGCGAGGAUAUACGUUUGCUUUUUUUUGUCGUUGCGUACAUGAGGAUCACCCAUGUAGAAGGCGCGCCGC [Apr-15 SS2-23] (puzzle: Exclusion 2)	16.8	–	–	–	–	–
UCGGCGCGAGGAUAUGCGGCUCCUGCUUCGGGCCGGAGCGUACAUGAGGAUCACCCAUGUAGAAGGCGCGCCGC [Apr-15 SS2-39] (puzzle: Exclusion 2)	10.2	–	–	–	–	–
UCGGCGCGAGGAUAUGCGGCUGCUGCUUCGGGCCGUGGCGUACAUGAGGAUCACCCAUGUAGAAGGCGCGCCGC [Apr-15 SS2-40] (Eterna round: R96, puzzle: Exclusion 2)	–	12.9	10.4	14.8	–	–
UCGGCGCGAGGAUAUGCGGCUGCUGCUUCGGGCCGUGGCGUACAUGAGGAUCACCCAUGUAGAAGGCGCGCCGC [Apr-15 SS2-40] (puzzle: Exclusion 2)	11.3	–	–	–	–	–
UCGGCGCGAGGAUAUGCGGUUCCUCCCUCGGGCCGGAGCGUACAUGAGGAUCACCCAUGUAGAAGGCGCGCCGC [Apr-15 SS2-36] (puzzle: Exclusion 2)	11.7	–	–	–	–	–
UCGGCGCGAGGAUAUGCGGUUCCUUCUUCGGGCCGGAGCGUACAUGAGGAUCACCCAUGUAGAAGGCGCGCCGC [Apr-15 SS2-37] (puzzle: Exclusion 2)	12.6	–	–	–	–	–
UCGGGCGCAGGAUAUGCCUUCCGGUACAUGAGGAUCACCCAUGUCGGGCAGUGCUGCGGAGUAGAAGGGCGUUGAG [Eternabot (L2) Solution 74] (Eterna round: R97, puzzle: Exclusion 5)	–	15.8	–	16.6	–	–
UCGGUGACAGGAUAUACAUGAGGAUCACCCAUGUUAAGAAGAGAAAGGGCAGGAAGAGGUAGAAGGGUCGCUGU [JL JR_Exclu3_Sub033 mod] (puzzle: Exclusion 3)	37.8	–	–	–	–	–
UCGUGAUUAGAGGAUAUAUUUUGAGUCAGAACAAUAGAAGGCUAAACAUGAGGAUCACCCAUGUAUGUGUAAAA [JR_Ex6_Sub063] (Eterna round: R97, puzzle: Exclusion 6)	–	184	–	26.9	–	–
UCUAGACAUGAGGAUCACCCAUGUGAGGAUAUGAUGCGAUCGUCGAAAGACGAUAGCAUCAGAAGGCACGUAUG [Fiskers Ex 1 - 14] (puzzle: Exclusion 1)	54.4	–	–	–	–	–
UCUAGGAGAGGAUAUACAUGAGGAUCACCCAUGUGCAUGAUCAGGCGUCAGUCGCACCGUAGAAGGUUCCAGAA [Eternabot (L2) Solution 40] (Eterna round: R97, puzzle: Exclusion 3)	–	89.9	–	47	–	–
UCUAGUUGGUAAGGAUAUCCUACAUUGUUCUGGCCCGGGCAUGCUACAUGAGGAUCACCCAUGUGGGAGAAGGUGCGUCAUUGC [Design 21] (Eterna round: R96, puzzle: Exclusion NG 2)	–	44.6	32.2	61.9	–	–
UCUAUGAUGCGAGGAUAUCGACCAUUCCUCUUUACAUGAGGAUCACCCAUGUUCGUACGCUACAACGAGAAGGCGCACUAAGUU [JR_ExcNG2_Sub060] (Eterna round: R96, puzzle: Exclusion NG 2)	–	292	131	157	–	–
UCUCGAUGGCAAGGAUAUCCUACAUUGUUCUGGCCCGGGCAUGCUACAUGAGGAUCACCCAUGUGGGAGAAGGUGCGCCACUGC [Design 26] (Eterna round: R96, puzzle: Exclusion NG 2)	–	118	55	93.3	–	–
UCUCGCGGGCAAGGAUAUCCUACGCUGUUCUGGCCCGUGUAUGUUACAUGAGGAUCACCCAUGUGGGAGAAGGUGCACCAGGGC [Design 40] (Eterna round: R96, puzzle: Exclusion NG 2)	–	83.3	39.3	76	–	–
UCUGGUCGAGGAUAUACAUUCGUGCUUCGGCACGUAAGAUCACAUGAGGAUCACCCAUGUAGAAGGCGACCAGA [E2/5-A3] (Eterna round: R97, puzzle: Exclusion 2)	–	1050	–	98.8	–	–
UCUGGUCGAGGAUAUGCAAUCGUGCUUCGGCACGUAAGGUCACAUGAGGAUCACCCAUGUAGAAGGCGACCAGA [E2/4-A3] (Eterna round: R97, puzzle: Exclusion 2)	–	34.4	–	17.3	–	–

Sequence	apparent KD of MS2 coat protein [1] [nM]	apparent KD of MS2 coat protein (input ligand: FMN 200 uM) [nM]	apparent KD of MS2 coat protein [2] [nM]	apparent KD of MS2 coat protein (input ligand: none) [nM]	apparent KD of MS2 coat protein (Eterna round: R95, input ligand: FMN 200 uM) [nM]	apparent KD of MS2 coat protein (Eterna round: R95, input ligand: none) [nM]
UCUGGUCGGAAGGAUAUGGUCGGGUCAAAUCGUCCAGAAGGUCUGACAUGAGGAUCACCCAUGUGAGUCCAAAG [Ataesma] (puzzle: Exclusion 6)	20.4	–	–	–	77.5	21.8
UCUGUUCAAGGAUAUGCGUAAGGUGUUACGGCACCAGGUCUACAUGAGGAUCACCCAUGUAGAAGGUGAUCAGA [EX2 #88] (Eterna round: R97, puzzle: Exclusion 2)	–	22.4	–	20.3	–	–
UCUUUGUCAGGAUAUCGUGCAUACAACGAAAGUUCUAUGUGCGAGAAGGGACAUGAGGAUCACCCAUGUUACGG [Omei Ex4 A4] (Eterna round: R97, puzzle: Exclusion 4)	–	244	–	358	–	–
UGAAAAGACCUAGGAUAUACCCAGUGGGUAGAGGGUCAGAAUAAUAAAACAUGAGGAUCACCCAUGUAGAAGGAGGGAAAGAAG [Laerxe] (Eterna round: R96, puzzle: Exclusion NG 2)	–	48.3	42	59.4	–	–
UGAACAUGAGGAUCACCCAUGUGGUUAGGUGAAAUCCUGCUGGAGGAUAUAAGUCCUGGUGCCGCUUAGAAGGCCAGCUGACAG [Eternabot solution 48] (Eterna round: R96, puzzle: Exclusion NG 3)	–	72	56.7	82.5	–	–
UGACACACCUGAGGAUAUUCUGAACGUUUCCCAGAAGAAGGUAGGUACAGCGGGAGCGCCACAUGAGGAUCACCCAUGUCUACC [Eternabot solution 46] (Eterna round: R96, puzzle: Exclusion NG 1)	–	126	103	142	–	–
UGAGCAAGAGGAUAUACAUGACGUGCCGUAGCACGAGGUCUACAUGAGGAUCACCCAUGUAGAAGGCUUGUUCU [Mat - Exclusion 2 - JL Mod - D5] (Eterna round: R97, puzzle: Exclusion 2)	–	170	–	34.2	–	–
UGAGCUACAGGAUAUAUAUGGCGACCGUGAGGUCGAAGGUUACAUGAGGAUCACCCAUGUAGAAGGGUAGUUCU [Mat - Exclusion 2 - JL Mod - D17] (Eterna round: R97, puzzle: Exclusion 2)	–	225	–	86.2	–	–
UGAGCUUGAGGAUAUACAAGCUUGAGCUGAAAAGUUCGAGUACAUGAGGAUCACCCAUGUAGAAGGCGAGUUCG [-26.7, -25.2 kcal, A 31% 1bis and 1] (Eterna round: R97, puzzle: Exclusion 2)	–	39.7	–	26	–	–
UGAGGACAUGAGGAUCACCCAUGUAAGGAUAUGCGGAGAGUUUGGAGAGGUUGAGGAGGCAGAAGGUACGGGAU [JR_Exclu1_Sub046] (Eterna round: R96, puzzle: Exclusion 1)	–	144	47.4	103	–	–
UGAGGACAUGAGGAUCACCCAUGUAAGGAUAUGCGGAGAGUUUGGAGAGGUUGAGGAGGCAGAAGGUACGGGAU [JR_Exclu1_Sub046] (puzzle: Exclusion 1)	102	–	–	–	–	–
UGAGUGCUGCGAGGAUAUACAUGAGGAUCACCCAUGUAAAAGUGUGAGGCUUUGCCUCACACUAUGUAGAAGGCGCAGUACUCU [JL ENG2 1.04] (Eterna round: R96, puzzle: Exclusion NG 2)	–	17.6	10.6	13.6	–	–
UGAGUGCUGCGAGGAUAUACAUGAGGAUCACCCAUGUAAACGUGUGAGGCUUUGCCUCACACGAUGUAGAAGGCGCAGUACUCU [JL ENG2 1.05] (Eterna round: R96, puzzle: Exclusion NG 2)	–	18.4	9.25	14	–	–
UGAUCAAAUGUCAGGAUAUGCUGUUGUAAUCAACAGCAGAAGGGACAUGAGGAUCACCCAUGUCUUGUCGAUUU [Magic-03] (puzzle: Brourd's mod of Exclusion 4)	13.8	–	–	–	–	–
UGAUCAGACCGAGGAUAUACAGGGAGCACGCACGUGAGUGCGUGCACUACAUGAGGAUCACCCAUGUAGAAGGCGGUCUGAUCU [JL ENG2 1.00] (Eterna round: R96, puzzle: Exclusion NG 2)	–	268	16.1	19.3	–	–
UGAUCAGACCGAGGAUAUACAUGUAGGACCCACGUGAGUGGGUCCAUUACAUGAGGAUCACCCAUGUAGAAGGCGGUCUGAUCU [JL ENG2 1.90] (Eterna round: R96, puzzle: Exclusion NG 2)	–	313	97.7	139	–	–
UGAUCAGACCGAGGAUAUAUAUGGAGGACCCACGUGAGUGGGUCCACUACAUGAGGAUCACCCAUGUAGAAGGCGGUCUGAUCU [JL ENG2 1.86] (Eterna round: R96, puzzle: Exclusion NG 2)	–	29.5	9.64	13.3	–	–
